± gives the standard deviation of the averaged measurements.
Assays:
Saccharomyces cerevisiae [1] = assay: protein stability index of tFT-peptide fusion (C-terminal peptide) (PSI (0-1 scale)); higher = more stable (slower turnover); settings: genetic background: wild type; temperature: 30 C
Saccharomyces cerevisiae [2] = assay: as above
Description: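 MPS profiling in S. cerevisiae of the tFT-X12 degron library: putative degron peptides plus stable controls, 12 aa, fused to the C-terminus of a sfGFP-mCherry timer. Cells are FACS-sorted into 8 mCherry/sfGFP bins and deep-sequenced. PSI runs from 0 (unstable) to 1 (stable). Backgrounds are wild type, das1Δ and doa10Δ at 30 °C, and wild type, das1Δ, cdc34-1 and cdc53-1 at 37 °C; 2-3 technical replicates each.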

[3] = genetic background: cdc34-1, temperature: 37 C
[4] = genetic background: cdc53-1, temperature: 37 C
[5] = genetic background: das1 deletion, temperature: 30 C
[6] = genetic background: das1 deletion, temperature: 37 C
[7] = genetic background: doa10 deletion, temperature: 30 C
[8] = genetic background: wild type, temperature: 30 C
[9] = genetic background: wild type, temperature: 37 C
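Further: PSI is a weighted mean of sequencing reads over stability bins, variants kept only with over 10 reads, mCherry proximal and sfGFP distal, peptide attached via GGGS linker.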

Sequence	protein stability index (Saccharomyces cerevisiae [1])	protein stability index (Saccharomyces cerevisiae [2]; [3])	protein stability index (Saccharomyces cerevisiae [2]; [4])	protein stability index (Saccharomyces cerevisiae [2]; [5])	protein stability index (Saccharomyces cerevisiae [2]; [6])	protein stability index (Saccharomyces cerevisiae [2]; [7])	protein stability index (Saccharomyces cerevisiae [2]; [8])	protein stability index (Saccharomyces cerevisiae [2]; [9])
GLVVVVRLQYSP	0.404 ± 0.027	0.309 ± 0.027	0.424 ± 0.02	0.329 ± 0.017	0.458 ± 0.011	0.27482 ± 1.4e-06	0.299 ± 0.016	0.4415 ± 0.0014
GLYFFVVRIFKV	0.27 ± 0.059	0.219 ± 0.021	0.345 ± 0.075	0.221 ± 0.039	0.437 ± 0.013	0.167 ± 0.0056	0.184 ± 0.022	0.336 ± 0.0096
GPGTWLFCFVRF	0.509 ± 0.027	0.504 ± 0.032	0.55 ± 0.0069	0.432 ± 0.029	0.602 ± 0.0065	0.475 ± 0.017	0.42 ± 0.022	0.612 ± 0.031
GQFFRCWRRRLC	0.171 ± 0.081	0.634 ± 0.044	0.709 ± 0.0072	0.649 ± 0.03	0.72 ± 0.022	0.145 ± 0.019	0.166 ± 0.028	0.443 ± 0.011
GRGLRVCWVWSG	0.286 ± 0.016	0.622 ± 0.054	0.7084 ± 0.0069	0.605 ± 0.019	0.7428 ± 0.0054	0.147 ± 0.013	0.18 ± 0.015	0.387 ± 0.013
GRHRRIRYVKTS	0.261 ± 0.087	0.633 ± 0.05	0.723 ± 0.0099	0.655 ± 0.014	0.744 ± 0.028	0.146 ± 0.024	0.183 ± 0.03	0.3527 ± 0.00097
GSLFANYNLKLF	0.163 ± 0.025	0.62289 ± 0.00034	0.724 ± 0.017	0.648 ± 0.06	0.771 ± 0.033	0.108 ± 0.017	0.106 ± 0.028	0.211 ± 0.013
GSVHLTKERHLV	0.319 ± 0.016	0.66 ± 0.028	0.74 ± 0.03	0.648 ± 0.032	0.7436 ± 0.0024	0.207 ± 0.0061	0.241 ± 0.036	0.499 ± 0.0063
GVAILFTFFRLL	0.159 ± 0.022	0.228 ± 0.086	0.526 ± 0.0023	0.456 ± 0.025	0.612 ± 0.02	0.0564 ± 0.016	0.0756 ± 0.0073	0.0737 ± 0.012
GVGHAWHYFCVC	0.357 ± 0.025	0.614 ± 0.044	0.7347 ± 0.0032	0.608 ± 0.018	0.74764 ± 0.00017	0.197 ± 0.017	0.247 ± 0.021	0.431 ± 0.0045
GVLIFLSFQPIA	0.431 ± 0.037	0.539 ± 0.021	0.617 ± 0.023	0.429 ± 0.03	0.599 ± 0.0088	0.3783 ± 0.0017	0.414 ± 0.013	0.556 ± 0.0093
GVLRMAPGRVMC	0.268 ± 0.032	0.599 ± 0.031	0.704 ± 0.0083	0.598 ± 0.024	0.702 ± 0.016	0.159 ± 0.02	0.175 ± 0.0027	0.345 ± 0.04
GVQFSVKWVKLG	0.225 ± 0.019	0.519 ± 0.022	0.7 ± 0.0093	0.616 ± 0.014	0.734 ± 0.0015	0.106 ± 0.011	0.109 ± 0.025	0.18 ± 0.0065
GVSLQLHVAVLI	0.44 ± 0.047	0.72 ± 0.39		0.483 ± 0.053	0.542 ± 0.056	0.275 ± 0.036	0.278 ± 0.0093	0.4284 ± 0.0018
GVSLRVFVVSVC	0.212 ± 0.053	0.137 ± 0.02	0.162 ± 0.015	0.219 ± 0.02	0.316 ± 0.0044	0.108 ± 0.005	0.122 ± 0.018	0.142 ± 0.0047
GVVWPLGWVWVE	0.527 ± 0.05	0.699 ± 0.016	0.7315 ± 0.0022	0.614 ± 0.012	0.7383 ± 0.0066	0.368 ± 0.014	0.421 ± 0.025	0.615 ± 0.0074
GWRFCVFIYVHR	0.179 ± 0.042	0.0703 ± 0.011	0.0688 ± 0.0038	0.115 ± 0.033	0.196 ± 0.012	0.213 ± 0.018	0.107 ± 0.015	0.186 ± 0.0085
GWVVVVCGVCCG	0.285 ± 0.011	0.178 ± 0.0072	0.22 ± 0.033	0.208 ± 0.026	0.307 ± 0.016	0.167 ± 0.0077	0.196 ± 0.024	0.28 ± 0.012
GYSMPVSFFFAL	0.356 ± 0.0092	0.669 ± 0.057	0.779 ± 0.012	0.616 ± 0.017	0.745 ± 0.0082	0.201 ± 0.011	0.24 ± 0.017	0.453 ± 0.014

— the supplement of paper PMC10724198
